In this test the target is recombinant LDHA (human, UniProt P00338 1-332). Nature of the test: fluorescence polarisation. (In general: In fluorescence polarisation assays a small probe gives low polarisation when free and higher when bound to something large.)

No end group written: not given here.

On to AQRMNTAFTP (peptide, UniProt Q8NFG4 219-228, looked up, also: rhodamine B label (position not given here)) [FLCN-10 peptide (aa 219-228), rhodamine B-labeled], for which the binding result was “binds”.

These data come from paper PMC9278990 (Nature structural & molecular biology, 2021).
